Measured values taken from patent US20090221691A1 (UNIVERSITY OF ROCHESTER, published 2009).
Where two headings read alike, the source gives them in different places.

B1: phage C5 (SCEKRLGVRSCT) (peptide)
peptide: SCEKRLGVRSCT
notes: Group III
B2: phage 2F (LCSKAYLLLGQTC) (peptide)
peptide: LCSKAYLLLGQTC
notes: Group I
B3: phage C4 (…) (peptide)
peptide: SCEKRYGIEFCT
B4: phage C14 (WCPPKAMTQLGIKAC) (peptide)
peptide: WCPPKAMTQLGIKAC
notes: Group II
B5: phage C4 (SCEKRYGIEFCT) (peptide)
peptide: SCEKRYGIEFCT
notes: Group III
B6: phage 3C (SCGHGLKVQSTIGACA) (peptide)
peptide: SCGHGLKVQSTIGACA
notes: Group II
B7: phage C2 (WCPPKLEQWYDGCA) (peptide)
peptide: WCPPKLEQWYDGCA
notes: Group IV
B8: phage C1 (SCKRTKAQILLAPCT) (peptide)
peptide: SCKRTKAQILLAPCT
notes: Group I; also called Cl
B9: phage 3.14 (SIGKALFILGYPDYD) (peptide)
peptide: SIGKALFILGYPDYD

Assays:
[1] = biological target: biotinylated Gβ1γ2 mutant Arg314Ala (rat) (UniProt P54311); experiment: phage ELISA, % of wild-type b-βγ
[2] = biological target: biotinylated Gβ1γ2 mutant Asn230Ala (rat) (UniProt P54311); experiment: phage ELISA, % of wild-type b-βγ
[3] = biological target: biotinylated Gβ1γ2 mutant Asp246Ser (rat) (UniProt P54311); experiment: phage ELISA, % of wild-type b-βγ
[4] = biological target: biotinylated Gβ1γ2 mutant His311Ala (rat) (UniProt P54311); experiment: phage ELISA, % of wild-type b-βγ
[5] = biological target: biotinylated Gβ1γ2 mutant His62Ala (rat) (UniProt P54311); experiment: phage ELISA, % of wild-type b-βγ
[6] = biological target: biotinylated Gβ1γ2 mutant Leu117Ala (rat) (UniProt P54311); experiment: phage ELISA, % of wild-type b-βγ
[7] = biological target: biotinylated Gβ1γ2 mutant Lys57Ala (rat) (UniProt P54311); experiment: phage ELISA, % of wild-type b-βγ
[8] = biological target: biotinylated Gβ1γ2 mutant Met101Ala (rat) (UniProt P54311); experiment: phage ELISA, % of wild-type b-βγ
[9] = biological target: biotinylated Gβ1γ2 mutant Met188Ala (rat) (UniProt P54311); experiment: phage ELISA, % of wild-type b-βγ
[10] = biological target: biotinylated Gβ1γ2 mutant Phe292Ala (rat) (UniProt P54311); experiment: phage ELISA, % of wild-type b-βγ
[11] = biological target: biotinylated Gβ1γ2 mutant Trp332Ala (rat) (UniProt P54311); experiment: phage ELISA, % of wild-type b-βγ
[12] = biological target: biotinylated Gβ1γ2 mutant Trp99Ala (rat) (UniProt P54311); experiment: phage ELISA, % of wild-type b-βγ
[13] = biological target: biotinylated Gβ1γ2 mutant Tyr145Ala (rat) (UniProt P54311); experiment: phage ELISA, % of wild-type b-βγ
[14] = biological target: biotinylated Gβ1γ2 mutant Arg314Ala (rat) (UniProt P54311); experiment: flow cytometry, dissociation of Fαi1 from immobilized b-β1γ2
[15] = biological target: biotinylated Gβ1γ2 mutant Asn230Ala (rat) (UniProt P54311); experiment: as above
[16] = biological target: biotinylated Gβ1γ2 mutant Asp186Ala (rat) (UniProt P54311); experiment: as above
[17] = biological target: biotinylated Gβ1γ2 mutant Leu117Ala (rat) (UniProt P54311); experiment: as above
[18] = biological target: biotinylated Gβ1γ2 mutant Lys57Ala (rat) (UniProt P54311); experiment: as above
[19] = biological target: biotinylated Gβ1γ2 mutant Met101Ala (rat) (UniProt P54311); experiment: as above
[20] = biological target: biotinylated Gβ1γ2 mutant Met188Ala (rat) (UniProt P54311); experiment: as above
[21] = biological target: biotinylated Gβ1γ2 mutant Trp332Ala (rat) (UniProt P54311); experiment: as above
[22] = biological target: biotinylated Gβ1γ2 mutant Trp99Ala (rat) (UniProt P54311); experiment: as above
[23] = biological target: biotinylated Gβ1γ2 mutant Tyr145Ala (rat) (UniProt P54311); experiment: as above
[24] = biological target: biotinylated Gβ1γ2 mutant Tyr59Ala (rat) (UniProt P54311); experiment: as above
[25] = biological target: biotinylated Gβ1γ2, wild-type (BAP-rat Gβ1 with Gγ2) (rat) (UniProt P54311); experiment: as above
[26] = biological target: biotinylated Gβ1γ2 mutant Arg314Ala (rat) (UniProt P54311); experiment: phage ELISA, % of wild-type b-βγ; remark: listed apart in the source
[27] = biological target: biotinylated Gβ1γ2 mutant Asn230Ala (rat) (UniProt P54311); experiment: phage ELISA, % of wild-type b-βγ; remark: listed apart in the source
[28] = biological target: biotinylated Gβ1γ2 mutant Asp186Ala (rat) (UniProt P54311); experiment: phage ELISA, % of wild-type b-βγ
[29] = biological target: biotinylated Gβ1γ2 mutant Asp246Ser (rat) (UniProt P54311); experiment: phage ELISA, % of wild-type b-βγ; remark: listed apart in the source
[30] = biological target: biotinylated Gβ1γ2 mutant His311Ala (rat) (UniProt P54311); experiment: phage ELISA, % of wild-type b-βγ; remark: listed apart in the source
[31] = biological target: biotinylated Gβ1γ2 mutant Leu117Ala (rat) (UniProt P54311); experiment: phage ELISA, % of wild-type b-βγ; remark: listed apart in the source
[32] = biological target: biotinylated Gβ1γ2 mutant Lys57Ala (rat) (UniProt P54311); experiment: phage ELISA, % of wild-type b-βγ; remark: listed apart in the source
[33] = biological target: biotinylated Gβ1γ2 mutant Met101Ala (rat) (UniProt P54311); experiment: phage ELISA, % of wild-type b-βγ; remark: listed apart in the source
[34] = biological target: biotinylated Gβ1γ2 mutant Met188Ala (rat) (UniProt P54311); experiment: phage ELISA, % of wild-type b-βγ; remark: listed apart in the source
[35] = biological target: biotinylated Gβ1γ2 mutant Trp332Ala (rat) (UniProt P54311); experiment: phage ELISA, % of wild-type b-βγ; remark: listed apart in the source
[36] = biological target: biotinylated Gβ1γ2 mutant Trp99Ala (rat) (UniProt P54311); experiment: phage ELISA, % of wild-type b-βγ; remark: listed apart in the source
[37] = biological target: biotinylated Gβ1γ2 mutant Tyr145Ala (rat) (UniProt P54311); experiment: phage ELISA, % of wild-type b-βγ; remark: listed apart in the source
[38] = biological target: biotinylated Gβ1γ2 mutant Tyr59Ala (rat) (UniProt P54311); experiment: phage ELISA, % of wild-type b-βγ
[39] = biological target: T1, biotinylated Gβ1γ2, wild-type (BAP-rat Gβ1 with Gγ2) (rat, UniProt P54311 1-340; P63212 2-68, biotin on the lysine acceptor residue of the BAP); experiment: phage ELISA on immobilized b-βγ
T1 construct: immobilized on streptavidin in the assays; also called b-βγ; b-Gβ1γ2; not shown: 20 amino acid biotin acceptor peptide (BAP) fused to the N-terminus
Description: Phage ELISA assays used to assess peptide binding to wild-type and mutant b-βγ were performed according to standard methods (Smrcka and Scott (2002) Methods Enzymol. 344:557-76). Briefly, 1 μg streptavidin was immobilized in the well of a […] overnight at 4° C. The wells were blocked with 100 μL of 2% bovine serum albumin (BSA) in Tris-buffered saline (TBS) for 1 hour at 4° C. followed by three washes of 1×TBS/0.5% TWEEN®. […] The wells were washed, followed by the addition of 1×10⁶ to 1×10¹⁰ phage particles and incubated at 4° C. for 3 hours. The wells were then washed six times with TBS/0.5% TWEEN® followed by addition of 40 μL of 1:5000 dilution of anti-M13 antibody (Pharmacia, Uppsala, Sweden) and incubated at room temperature for 1 hour. The wells were washed, followed by the addition of 40 μL of (2,2′-Azino-bis(3-ethylbenzthiazoline)-6-sulfonic acid (ABTS) and the […] reaction was monitored at 405 nm. Non-specific binding was subtracted for each reading.

biotinylated Gβ1γ2 mutant Asp246Ser (rat), sequence (P54311 whole entry D246S, chain 1 of 2): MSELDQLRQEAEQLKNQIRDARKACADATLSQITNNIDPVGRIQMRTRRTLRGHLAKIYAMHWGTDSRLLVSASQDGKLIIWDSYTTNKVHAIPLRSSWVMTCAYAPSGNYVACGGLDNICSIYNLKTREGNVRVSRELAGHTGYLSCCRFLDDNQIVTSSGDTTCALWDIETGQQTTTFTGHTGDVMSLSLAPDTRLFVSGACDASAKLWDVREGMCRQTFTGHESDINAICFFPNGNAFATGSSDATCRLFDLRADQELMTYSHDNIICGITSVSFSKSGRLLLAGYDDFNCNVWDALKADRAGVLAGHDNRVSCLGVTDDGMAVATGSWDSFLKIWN
biotinylated Gβ1γ2 mutant Asp246Ser (rat), sequence (P63212 2-68, chain 2 of 2, further chain): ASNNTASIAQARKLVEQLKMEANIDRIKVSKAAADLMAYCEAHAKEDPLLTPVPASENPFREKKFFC
biotinylated Gβ1γ2 mutant Asn230Ala (rat), sequence (P54311 whole entry N230A, chain 1 of 2): as the sequence (P54311 whole entry D246S, chain 1 of 2) above, with N230A, S246D counted along it
biotinylated Gβ1γ2 mutant Asn230Ala (rat), sequence (P63212 2-68, chain 2 of 2, further chain): as the sequence (P63212 2-68, chain 2 of 2, further chain) above
biotinylated Gβ1γ2 mutant His311Ala (rat), sequence (P54311 whole entry H311A, chain 1 of 2): as the sequence (P54311 whole entry D246S, chain 1 of 2) above, with S246D, H311A counted along it
biotinylated Gβ1γ2 mutant His311Ala (rat), sequence (P63212 2-68, chain 2 of 2, further chain): as the sequence (P63212 2-68, chain 2 of 2, further chain) above
biotinylated Gβ1γ2 mutant Arg314Ala (rat), sequence (P54311 whole entry R314A, chain 1 of 2): as the sequence (P54311 whole entry D246S, chain 1 of 2) above, with S246D, R314A counted along it
biotinylated Gβ1γ2 mutant Arg314Ala (rat), sequence (P63212 2-68, chain 2 of 2, further chain): as the sequence (P63212 2-68, chain 2 of 2, further chain) above
biotinylated Gβ1γ2 mutant Met188Ala (rat), sequence (P54311 whole entry M188A, chain 1 of 2): as the sequence (P54311 whole entry D246S, chain 1 of 2) above, with M188A, S246D counted along it
biotinylated Gβ1γ2 mutant Met188Ala (rat), sequence (P63212 2-68, chain 2 of 2, further chain): as the sequence (P63212 2-68, chain 2 of 2, further chain) above
biotinylated Gβ1γ2 mutant Met101Ala (rat), sequence (P54311 whole entry M101A, chain 1 of 2): as the sequence (P54311 whole entry D246S, chain 1 of 2) above, with M101A, S246D counted along it
biotinylated Gβ1γ2 mutant Met101Ala (rat), sequence (P63212 2-68, chain 2 of 2, further chain): as the sequence (P63212 2-68, chain 2 of 2, further chain) above
biotinylated Gβ1γ2 mutant Trp99Ala (rat), sequence (P54311 whole entry W99A, chain 1 of 2): as the sequence (P54311 whole entry D246S, chain 1 of 2) above, with W99A, S246D counted along it
biotinylated Gβ1γ2 mutant Trp99Ala (rat), sequence (P63212 2-68, chain 2 of 2, further chain): as the sequence (P63212 2-68, chain 2 of 2, further chain) above
T1 sequence (P54311 whole entry, chain 1 of 2, the tested form may be a part): as the sequence (P54311 whole entry D246S, chain 1 of 2) above, with S246D counted along it
T1 sequence (P63212 2-68, chain 2 of 2): as the sequence (P63212 2-68, chain 2 of 2, further chain) above
biotinylated Gβ1γ2 mutant Leu117Ala (rat), sequence (P54311 whole entry L117A, chain 1 of 2): as the sequence (P54311 whole entry D246S, chain 1 of 2) above, with L117A, S246D counted along it
biotinylated Gβ1γ2 mutant Leu117Ala (rat), sequence (P63212 2-68, chain 2 of 2, further chain): as the sequence (P63212 2-68, chain 2 of 2, further chain) above
biotinylated Gβ1γ2 mutant Tyr145Ala (rat), sequence (P54311 whole entry Y145A, chain 1 of 2): as the sequence (P54311 whole entry D246S, chain 1 of 2) above, with Y145A, S246D counted along it
biotinylated Gβ1γ2 mutant Tyr145Ala (rat), sequence (P63212 2-68, chain 2 of 2, further chain): as the sequence (P63212 2-68, chain 2 of 2, further chain) above
biotinylated Gβ1γ2 mutant Tyr59Ala (rat), sequence (P54311 whole entry Y59A, chain 1 of 2): as the sequence (P54311 whole entry D246S, chain 1 of 2) above, with Y59A, S246D counted along it
biotinylated Gβ1γ2 mutant Tyr59Ala (rat), sequence (P63212 2-68, chain 2 of 2, further chain): as the sequence (P63212 2-68, chain 2 of 2, further chain) above

Molecule | % of Wild-Type Signal [26] [%] | % of Wild-Type Signal [27] [%] | % of Wild-Type Signal [28] [%] | % of Wild-Type Signal [29] [%] | % of Wild-Type Signal [30] [%] | % of Wild-Type Signal [31] [%] | % of Wild-Type Signal [32] [%] | % of Wild-Type Signal [33] [%] | % of Wild-Type Signal [34] [%] | % of Wild-Type Signal [35] [%] | % of Wild-Type Signal [36] [%] | % of Wild-Type Signal [37] [%] | % of Wild-Type Signal [38] [%] | binding result [39] | also measured
phage displaying SIGK peptide | – | – | – | – | – | – | – | – | – | – | – | – | – | – | % of Wild-Type Signal [1]: 50.2%; % of Wild-Type Signal [2]: 22.4%; % of Wild-Type Signal [3]: 66.5%; % of Wild-Type Signal [4]: 94.3%; % of Wild-Type Signal [5]: 111%; % of Wild-Type Signal [6]: 2.1%; % of Wild-Type Signal [7]: 18.6%; % of Wild-Type Signal [8]: 32.2%; % of Wild-Type Signal [9]: 2.5%; % of Wild-Type Signal [10]: 109%; % of Wild-Type Signal [11]: 7.1%; % of Wild-Type Signal [12]: 66%; % of Wild-Type Signal [13]: 0.8%
Fluorescein-labeled Gαi1 | – | – | – | – | – | – | – | – | – | – | – | – | – | – | koff [14]: 0.00197 s⁻¹; koff [15]: 0.00247 s⁻¹; koff [16]: 0.00267 s⁻¹; koff [17]: 0.00602 s⁻¹; koff [18]: 0.0024 s⁻¹; koff [19]: 0.0019 s⁻¹; koff [20]: 0.00203 s⁻¹; koff [21]: 0.00502 s⁻¹; koff [22]: 0.0048 s⁻¹; koff [23]: 0.00258 s⁻¹; koff [24]: 0.00302 s⁻¹; koff [25]: 0.00205 s⁻¹
B1 | 76.5 | 33.5 | 45.7 | 56.3 | 58.7 | 28.5 | 5.6 | 47.8 | 97.2 | 3.2 | 39 | 16.7 | 73.8 | binds | –
B2 | 2.4 | 27.6 | 2.4 | 0.6 | 23.6 | 2.1 | -4.5 | 6 | 8.5 | -1.5 | 32.6 | 0.1 | -2 | binds | –
B3 | 1.4 | 11.5 | 51.3 | 35.8 | 36.5 | 18.4 | -0.2 | 61.2 | 128 | 1.7 | 67 | 4.4 | 7.6 | – | –
B4 | 3.9 | 60 | 3.6 | 6.3 | 6.1 | 3.8 | 3 | 1.1 | 9.9 | 1.6 | 10.1 | 1.9 | 3.6 | binds | –
B5 | – | – | – | – | – | – | – | – | – | – | – | – | – | binds | –
B6 | 8.3 | 4.1 | 35 | 2 | 30.5 | 10 | 3.6 | -4.2 | -5.7 | -0.3 | -0.5 | 2.7 | 8.5 | binds | –
B7 | 1.3 | 0 | 267 | 5.9 | 11.7 | 1.5 | -1.2 | 157 | -0.7 | 4.7 | -1 | 4.5 | -1.7 | binds | –
B8 | 2.8 | 19.8 | 1.4 | 2.3 | 3 | 5.2 | 0.1 | 70.5 | 4 | -0.3 | 1.2 | 88 | 0.3 | binds | –
B9 | 50.2 | 22.4 | 14.4 | 66.5 | 93.4 | 2.1 | 18.6 | 26.8 | 2.5 | 7.1 | 66 | 0.8 | 24.7 | binds | –
